Test results published in US20160347862A1 (Janssen / Centocor, published 2016).
Changes are numbered by the printed parent chain. Names may count otherwise.

B1: wild-type anti-exosite 1 IgA antibody (antibody, V domains shown)
VH: QVQLIQSGSAVKKPGASVRVSCKVSGYTLTEAAIHWVRQAPGKGLEWMGGLDPQDGETVYAQQFKGRVTMTEDRSTDTAYMEVNNLRSEDTATYYCTTGDFSEFEPFSMDYFHFWGQGTVVTVAS
VL: EIVLTQSPATLSLSPGERATLSCRASQNVSSFLAWYQHKPGQAPRLLIYDASSRATDIPIRFSGSGSGTDFTLTISGLEPEDFAVYYCQQRRSWPPLTFGGGTKVEIKR
notes: also called anti-thrombin IgA; anti-IIa IgA
B2: synthetic anti-exosite 1 IgG S30A variant antibody (antibody, V domains shown)
VH: B1 VH
VL: B1 VL with S30A
notes: also called ichorcumab S30A; ichorcumab

Tests used:
human thrombin [1] = molecular target: T1, human thrombin (human, UniProt P00734 314-363; P00734 364-622); assay: estimated from the rate of S2238 hydrolysis by thrombin
human thrombin [2] = molecular target: T1, human thrombin; assay: cell-based or functional assay
prothrombin = prothrombin (Homo sapiens (Human), UniProt P00734 44-622); assay: pull-down with IgA-binding lectin agarose; supernatant on non-reducing SDS-PAGE
human thrombin [3] = molecular target: T1, human thrombin; assay: cell-based or functional assay; remark: listed apart in the source
human thrombin [4] = molecular target: T1, human thrombin; assay: Biacore, antibody as ligand, after storage for one month at 4° C.
human thrombin [5] = molecular target: T1, human thrombin; assay: Biacore, antibody as ligand, after exposure to light
human thrombin [6] = molecular target: T1, human thrombin; assay: Biacore, antibody as ligand, ambient condition; Control (ambient condition), not 4° C. storage or light exposure
human thrombin [7] = molecular target: T1, human thrombin; assay: ELISA binding to thrombin, four-parameter fit (log(agonist) vs. response -- Variable slope)

Row | Binder | Kd (human thrombin [1]) [nM] | EC50 (read off the curve), Vi/V0 of S2238 cleavage by thrombin (human thrombin [2]) [nM] | binding result (prothrombin) | thrombin hydrolysis of FVIII (feedback activation of thrombin via Xase complex) (human thrombin [3]) [fold] | thrombin hydrolysis of platelet receptor PAR-1 peptide (activation of platelets) (human thrombin [3]) [fold] | Kd (human thrombin [4]) [nM] | Kd (human thrombin [5]) [nM] | Kd (human thrombin [6]) [nM] | EC50 (human thrombin [7]) [µg/mL]
1 | B1 | ~12 | ~10 | no binding | 7 | 15 |  |  |  | 
2 | B2 |  |  |  |  |  | 1.74 | 1.8 | 1.77 | 0.0126
